For one series, the system named is tau. Description: Adiponectin addition (3): tau phosphorylation (western blotting). Type of series: cell-based, rat. The note with it: 1 μg/mL, 0, 1 and 2 hour(s), B103 neuroblastoma cells (αS). The procedure: (§1) The B103 neuroblastoma cells (α (alpha)S) and the B103 neuroblastoma cells (vector) were inoculated on a 5 cm dish and cultured to a state of about 80-90% confluence. Later, the aforementioned cells were washed with PBS, and then cultured in a serum-free medium for four hours. After washing with PBS, the cells were then cultured in a test medium (adiponectin-added group) prepared by adding recombinant human adiponectin (1_μg/mL, trimer, PROSPEC) to a serum-free medium. As a control, there was used a control medium (adiponectin non-added group) prepared by adding thereto PBS instead of recombinant human adiponectin. A culture time was 0, 10 and 30 min when evaluating signal transduction, 0, 1 and 2 hour(s) when evaluating tau phosphorylation. The cells collected were lysed with a cell lysis solution (1% TritonX-100, 1% Nonidet P-40, 50 mM HEPES, 150 mM NaCl, 10% glycerol, 1.5 mM MgCl2, 1 mM EGTA, 100_mM sodium fluoride, a protease inhibitor (NACALAI TESQUE, INC.)). Supernatants were collected after performing centrifugation at 100,000×g for 30 min, and were used as surfactant soluble fractions when performing western blotting. Here, western blotting was performed in accordance with the procedures described in example 1. […]
Background: Immunoblotting shows a protein as a band on a membrane.

A further series concerns B103 neuroblastoma cells. Briefly: Cytotoxicity due to the addition of adiponectin. The note with it: 1 μg/mL. The format is cell-based, rat. The method, then:
The B103 neuroblastoma cells (α (alpha)S) and the B103 neuroblastoma cells (vector) were prepared and cultured in accordance with the procedures described in example 3. The B103 neuroblastoma cells (α (alpha)S) and the B103 neuroblastoma cells (vector) were inoculated on the 6-well plate and cultured to a state of about 80-90% confluence. After washing with PBS, the aforementioned cells were further cultured for 24 hours in a test medium prepared by adding recombinant human adiponectin (1 μg/mL, trimer, PROSPEC) to a serum-free medium. As a control, there was used a control medium prepared by adding thereto PBS instead of recombinant human adiponectin. After culturing, there were prepared the TBS soluble fraction, the SDS soluble fraction and the formic acid soluble fraction in accordance with the procedures described in example 1. Further, western blotting was performed in accordance with the procedures described in example 1. In order to evaluate α (alpha)-synuclein aggregation, an anti-α (alpha)-synuclein mouse monoclonal antibody (syn-1, Nippon Becton Dickinson Company, Ltd) was used as a primary antibody when performing western blotting, the anti-α (alpha)-synuclein mouse monoclonal antibody being diluted appropriately before use. Additionally, an HRP labeled anti-mouse IgG antibody (DAKO) was used as a secondary antibody, the HRP labeled anti-mouse IgG antibody being diluted appropriately before use.
The B103 neuroblastoma cells (α (alpha)S) and the B103 neuroblastoma cells (vector) were inoculated on a 5 cm dish and cultured to a state of about 80-90% confluence. Later, the aforementioned cells were washed with PBS, and then cultured in a serum-free medium for four hours. After washing with PBS, the cells were then cultured in a test medium (adiponectin-added group) prepared by adding recombinant human adiponectin (1_μg/mL, trimer, PROSPEC) to a serum-free medium. As a control, there was used a control medium (adiponectin non-added group) prepared by adding thereto PBS instead of recombinant human adiponectin. […]

In the next series the test system is p38 MAPK. Description: Adiponectin addition (2): signal transduction, phospho-p38 MAPK western blotting. Type of series: cell-based, rat. The note with it: 1 μg/mL, 0, 10 and 30 min. The procedure: as §1
The target of series [1] is T1, human α (alpha)-synuclein recombinant protein (Homo sapiens, UniProt P37840).
T1 construct: made in house
Briefly: Protein-protein interaction of α-synuclein and adiponectin in test tube (western blotting). The format is binding. To be noted: 48 hours, 37° C. The method, then: Human adiponectin recombinant protein (ProSpec, IWAI CHEMICALS COMPANY LTD.) 0.5 μg and human α (alpha)-synuclein recombinant protein (Hashimoto et al., Brain Res. 799:301 (1998)) 1.0 μg were incubated for 48 hours in 100 mM sodium acetate solution at 37° C., 500 rpm (Thermomixer, Eppendorf Co., Ltd.). Later, an analysis via western blotting was performed in accordance with procedures similar to those in example 1 through example 6. Each sample was dissolved in 1× sample buffer without 2ME, and heated at 95° C. for 10 min. With regard to a control experiment, incubation was performed at room temperature. Particularly, instead of α (alpha)-synuclein, BSA (1.0 μg) was incubated with adiponectin.

In the next series the test system is GSK-3β (beta). Briefly: Adiponectin addition (2): signal transduction, phospho-GSK-3β western blotting. Type of series: cell-based, rat. The note with it: 1 μg/mL, 0, 10 and 30 min. The procedure: as §1

B1: adiponectin: recombinant human adiponectin (trimer, PROSPEC) added to serum-free medium at 1 μg/mL (protein, UniProt Q15848 19-244, looked up)
Adiponectin: ETTTQGPGVLLPLPKGACTGWMAGIPGHPGHNGAPGRDGRDGTPGEKGEKGDPGLIGPKGDIGETGVPGAEGPRGFPGIQGRKGEPGEGAYVYRSAFSVGLETYVTIPNMPIRFTKIFYNQQNHYDGSTGKFHCNIPGLYYFAYHITVYMKDVKVSLFKKDKAMLFTYDQYQENNVDQASGSVLLHLEVGDQVWLQVYGEGERNGLYADNDNDSTFTGFLLYHDTN
As to B1, the “amount of phosphorylated tau (Ser 202, Ser 396)” value in the series on tau is given as “decreased”. The cytotoxicity entry in the series with B103 neuroblastoma cells (24 hours (α-synuclein aggregation experiment)), in the series with B103 neuroblastoma cells (signal transduction experiment) and in the series on B103 neuroblastoma cells (tau phosphorylation experiment) was “not particularly observed” throughout. Besides, the “phosphorylation of p38 MAPK” value with p38 MAPK was “promoted”. Besides, the dimer of adiponectin result in series [1] (0.5 μg adiponectin incubated with 1.0 μg α-synuclein) was “further increased”. Further, the adiponectin aggregation entry in series [1] (in the presence of α-synuclein, densitometer values of aggregate range) is recorded as “significantly promoted”. Further, in the series with GSK-3β (beta), the “phosphorylation of GSK-3β” value is “promoted”.

The record behind these values is patent US9101618B2, “Method for treating and/or preventing neurodegenerative disease by adiponectin receptor agonist” (TOKYO METROPOLITAN INSTITUTE OF MEDICAL SCIENCE, priority 2011, dated 2015).
